Biological target: T1, canine NGF tagged at the C-terminus with the Flag tag (canine, UniProt A0A8I3PYI3 122-241)
T1 construct: mature; Expressed with baculovirus technology; also called feline NGF (processed form identical)
Assay: SPR off-rate assay, Fab-SASA on BSA chip

T1 sequence (A0A8I3PYI3 entry or part of it): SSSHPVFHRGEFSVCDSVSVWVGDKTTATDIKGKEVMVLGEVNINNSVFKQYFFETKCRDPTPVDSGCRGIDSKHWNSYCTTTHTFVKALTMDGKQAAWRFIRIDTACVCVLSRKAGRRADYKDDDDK

Binder	Kd [nM]	Ratio (KD) WT/clones	Ratio (kd) WT/clones	koff [s⁻¹]	kon [M⁻¹ s⁻¹]
AHF17591 (Fab, V domains shown, not shown: small tags and cut ends) VH: DVQLVESGGDLVKPGGSLRLTCVASGLSLTSSSMVWVRQAPGKGLQWVSTIYSNRGTYYTDSVKGRFTISKDNAENTLYLQMNNLKTEDTATYYCASIYYYDADYLHWYFDEWGQGALVTVSS VL: EIQMTQSPTSLSASVGDRVTITCRASEGIANNLSWYQQTPGKAPKLLIYATSILHSGVPSRFSGSGSGTDFTLTISSLQPEDFATYYCQQGYKWPLTFGGGTKLEITR	≤ 0.00373	926	1680	≤ 1e-06	268000
AHF17597 (Fab, V domains shown, not shown: small tags and cut ends) VH: DVQLVESGGDLVKPGGSLRLTCVASGLSLTSSSMVWVRQAPGKGLQWVSTIYSNRGTYYTDSVKGRFTISKDNAENTLYLQMNNLKTEDTATYYCASIYYYDADYLHWYFDFWGQGALVTVSS VL: EIQMTQSPTSLSASVGDRVTITCRASEGIQNNLSWYQQTPGKAPKLLIYATSILHSGVPSRFSGSGSGTDFTLTISSLQPEDFATYYCQQGYKWPLTFGGGTKLEITR	0.0544	63.5	156	1.08e-05	199000
AHF17601 (Fab, V domains shown, not shown: small tags and cut ends) VH: DVQLVESGGDLVKPGGSLRLTCVASGLSLTSSSMVWVRQAPGKGLQWVSTIYSNRGTYYTDSVKGRFTISKDNAENTLYLQMNNLKTEDTATYYCAQIYYYDADYLHWYFDEWGQGALVTVSS VL: EIQMTQSPTSLSASVGDRVTITCRASEGIANNLSWYQQTPGKAPKLLIYATSNLHSGVPSRFSGSGSGTDFTLTISSLQPEDFATYYCQQGYKWPLTFGGGTKLEITR	≤ 0.00344	1010	1680	≤ 1e-06	291000
AHF17606 (Fab, V domains shown, not shown: small tags and cut ends) VH: DVQLVESGGDLVKPGGSLRLTCVASGLSLTSSSMVWVRQAPGKGLQWVSTIYSNRGTYYTDSVKGRFTISKDNAENTLYLQMNNLKTEDTATYYCASIYYYDADYLHWYFDFWGQGALVTVSS VL: EIQMTQSPTSLSASVGDRVTITCRASEGIANNLSWYQQTPGKAPKLLIYATSNLHSGVPSRFSGSGSGTDFTLTISSLQPEDFATYYCQQGYKWPLTFGGGTKLEITR	0.107	32.3	83.8	2.01e-05	187000
AHF17599 (Fab, V domains shown, not shown: small tags and cut ends) VH: DVQLVESGGDLVKPGGSLRLTCVASGLSLTSSSMVWVRQAPGKGLQWVSTIYSNRGTYYTDSVKGRFTISKDNAENTLYLQMNNLKTEDTATYYCASIYYYDADYLHWYFDFWGQGALVTVSS VL: EIQMTQSPTSLSASVGDRVTITCRASEGIANNLSWYQQTPGKAPKLLIYATSVLHSGVPSRFSGSGSGTDFTLTISSLQPEDFATYYCQQGYKWPLTFGGGTKLEITR	≤ 0.00472	732	1680	≤ 1e-06	212000
AHF17602 (Fab-SASA) (Fab, V domains shown, not shown: small tags and cut ends) VH: DVQLVESGGDLVKPGGSLRLTCVASGLSLTSSSMVWVRQAPGKGLQWVSTIYSNRGTYYTDSVKGRFTISKDNAENTLYLQMNNLKTEDTATYYCASIYYYDADYLHWYFDFWGQGALVTVSS VL: EIQMTQSPTSLSASVGDRVTITCRASEGIANNLSWYQQTPGKAPKLLIYATSNLHSGVPSRFSGSGSGTDFTLTISSLQPEDFATYYCQQGYKWPLTFGGGTKLEITR	≤ 0.00476	726	1680	≤ 1e-06	210000
AHF17605 (Fab, V domains shown, not shown: small tags and cut ends, Fab-SASA, combinatorial library) VH: DVQLVESGGDLVKPGGSLRLTCVASGLSLTSSSMVWVRQAPGKGLQWVSTIYSNGGTYYTDSVKGRFTISKDNAENTLYLQMNNLKTEDTATYYCAQIYYYDADYLHWYFDFWGQGALVTVSS VL: EIQMTQSPTSLSASVGDRVTITCRASEGIANNLSWYQQTPGKAPKLLIYATSILHSGVPSRFSGSGSGTDFTLTISSLQPEDFATYYCQQGYKWPLTFGGGTKLEITR	0.82	4.21	8.14	0.000207	253000
AHF17603 (Fab, V domains shown, not shown: small tags and cut ends) VH: DVQLVESGGDLVKPGGSLRLTCVASGLSLTSSSMVWVRQAPGKGLQWVSTIYSNGGTYYTDSVKGRFTISKDNAENTLYLQMNNLKTEDTATYYCASIYYYDADYLHWYFDEWGQGALVTVSS VL: EIQMTQSPTSLSASVGDRVTITCRASEGIANNLSWYQQTPGKAPKLLIYATSILHSGVPSRFSGSGSGTDFTLTISSLQPEDFATYYCQQGYKWPLTFGGGTKLEITR	0.664	5.2	6.88	0.000245	368000
AHF17596 (Fab, V domains shown, not shown: small tags and cut ends) VH: DVQLVESGGDLVKPGGSLRLTCVASGLSLTSSSMVWVRQAPGKGLQWVSTIYSNRGTYYTDSVKGRFTISKDNAENTLYLQMNNLKTEDTATYYCASIYYYDADYLHWYFDFWGQGALVTVSS VL: EIQMTQSPTSLSASVGDRVTITCRASEGIANNLSWYQQTPGKAPKLLIYATSVLHSGVPSRFSGSGSGTDFTLTISSLQPEDFATYYCQQGYKWPLTFGGGTKLEITR	0.0802	43.1	92.6	1.82e-05	227000
AHF17598 (Fab, V domains shown, not shown: small tags and cut ends) VH: DVQLVESGGDLVKPGGSLRLTCVASGLSLTSSSMVWVRQAPGKGLQWVSTIYSNRGTYYTDSVKGRFTISKDNAENTLYLQMNNLKTEDTATYYCASIYYYDADYLHWYFDEWGQGALVTVSS VL: EIQMTQSPTSLSASVGDRVTITCRASEGIANNLSWYQQTPGKAPKLLIYATSILHSGVPSRFSGSGSGTDFTLTISSLQPEDFATYYCQQGYKWPLTFGGGTKLEITR	0.179	19.3	32.1	5.25e-05	294000
AHF17600 (Fab, V domains shown, not shown: small tags and cut ends) VH: DVQLVESGGDLVKPGGSLRLTCVASGLSLTSSSMVWVRQAPGKGLQWVSTIYSNRGTYYTDSVKGRFTISKDNAENTLYLQMNNLKTEDTATYYCASIYYYDADYLHWYFDFWGQGALVTVSS VL: EIQMTQSPTSLSASVGDRVTITCRASEGISNNLSWYQQTPGKAPKLLIYATSVLHSGVPSRFSGSGSGTDFTLTISSLQPEDFATYYCQQGYKWPLTFGGGTKLEITR	0.329	10.5	29	5.81e-05	177000
AHF17593 (Fab, V domains shown, not shown: small tags and cut ends, Fab-SASA, combinatorial library) VH: DVQLVESGGDLVKPGGSLRLTCVASGLSLTSSSMVWVRQAPGKGLQWVSTIYSNRGTYYTDSVKGRFTISKDNAENTLYLQMNNLKTEDTATYYCAQIYYYDADYLHWYFDFWGQGALVTVSS VL: EIQMTQSPTSLSASVGDRVTITCRASEGIANNLSWYQQTPGKAPKLLIYATSVLHSGVPSRFSGSGSGTDFTLTISSLQPEDFATYYCQQGYKWPLTFGGGTKLEITR	≤ 0.00613	563	1680	≤ 1e-06	163000
AHF17604 (Fab, V domains shown, not shown: small tags and cut ends, Fab-SASA, combinatorial library) VH: DVQLVESGGDLVKPGGSLRLTCVASGLSLTSSSMVWVRQAPGKGLQWVSTIYSNRGTYYTDSVKGRFTISKDNAENTLYLQMNNLKTEDTATYYCAQIYYYDADYLHWYFDFWGQGALVTVSS VL: EIQMTQSPTSLSASVGDRVTITCRASEGIQNNLSWYQQTPGKAPKLLIYATSILHSGVPSRFSGSGSGTDFTLTISSLQPEDFATYYCQQGYKWPLTFGGGTKLEITR	0.321	10.8	36.2	4.66e-05	145000
AHF17595 (Fab, V domains shown, not shown: small tags and cut ends) VH: DVQLVESGGDLVKPGGSLRLTCVASGLSLTSSSMVWVRQAPGKGLQWVSTIYSNRGTYYTDSVKGRFTISKDNAENTLYLQMNNLKTEDTATYYCASIYYYDADYLHWYFDEWGQGALVTVSS VL: EIQMTQSPTSLSASVGDRVTITCRASEGIQNNLSWYQQTPGKAPKLLIYATSNLHSGVPSRFSGSGSGTDFTLTISSLQPEDFATYYCQQGYKWPLTFGGGTKLEITR	≤ 0.00562	615	1680	≤ 1e-06	178000
AHF17594 (Fab, V domains shown, not shown: small tags and cut ends) VH: DVQLVESGGDLVKPGGSLRLTCVASGLSLTSSSMVWVRQAPGKGLQWVSTIYSNGGTYYTDSVKGRFTISKDNAENTLYLQMNNLKTEDTATYYCASIYYYDADYLHWYFDFWGQGALVTVSS VL: EIQMTQSPTSLSASVGDRVTITCRASEGIANNLSWYQQTPGKAPKLLIYATSVLHSGVPSRFSGSGSGTDFTLTISSLQPEDFATYYCQQGYKWPLTFGGGTKLEITR	0.931	3.71	5.14	0.000328	353000
AHF17592 (Fab, V domains shown, not shown: small tags and cut ends) VH: DVQLVESGGDLVKPGGSLRLTCVASGLSLTSSSMVWVRQAPGKGLQWVSTIYSNRGTYYTDSVKGRFTISKDNAENTLYLQMNNLKTEDTATYYCASIYYYDADYLHWYFDFWGQGALVTVSS VL: EIQMTQSPTSLSASVGDRVTITCRASEGISNNLSWYQQTPGKAPKLLIYATSVLHSGVPSRFSGSGSGTDFTLTISSLQPEDFATYYCQQGYKWPLTFGGGTKLEITR	0.0761	45.4	115	1.46e-05	192000

Biological target: T1, canine NGF tagged at the C-terminus …
Assay: SPR off-rate screen, Fab-SASA on BSA chip

Binder	Kd [nM]	Ratio WT-kd/clone-kd	koff [s⁻¹]	kon [M⁻¹ s⁻¹]
felinized clone 101 Fab-SASA variant Y101H (VH) (Fab, V domains shown, not shown: small tags and cut ends) VH: DVQLVESGGDLVKPGGSLRLTCVASGLSLTSSSMSWVRQAPGKGLQWVSTIYSNGGTYYTDSVKGRFTISKDNAENTLYLQMNNLKTEDTATYYCASIYYHDADYLHWYFDFWGQGALVTVSS VL: EIQMTQSPTSLSASVGDRVTITCRASEGISNNLSWYQQTPGKAPKLLIYATSNLHSGVPSRFSGSGSGTDFTLTISSLQPEDFATYYCQQGYKWPLTFGGGTKLEITR	1.62	1.9	0.000496	307000

Reference: patent publication US20250011410A1 (INVETX, published 2025)
